The values that follow come from patent publication US20260176319A1 (KALLYOPE, published 2026).

This assay concerns the target human GRP receptor (human, UniProt P30550 1-384). The experiment in a line: cell-based or functional assay.

Starred links: 1 amine or outer side, 2 acyl side, 3 side chain; linkers in the order of their positions; H or OH if unused. Non-standard residues stand in square brackets, D forms with d. No end group written: not given here. *: point of attachment. Trp(6-F) = N[C@@H](Cc1c[nH]c2cc(F)ccc12)C(=O)O; Trp(7-F) = N[C@@H](Cc1c[nH]c2c(F)cccc12)C(=O)O; Trp(7-Me) = Cc1cccc2c(C[C@H](N)C(=O)O)c[nH]c12; C20 diacid = O=C(O)CCCCCCCCCCCCCCCCCCC(=O)*; d(γGlu) = O=C(O)[C@@H](CCC(=O)[*:2])N[*:1]; C18 diacid = O=C(O)CCCCCCCCCCCCCCCCC(=O)*; γGlu = O=C(O)[C@H](CCC(=O)[*:2])N[*:1]; 2Nal = N[C@@H](Cc1ccc2ccccc2c1)C(=O)O; Cha = N[C@@H](CC1CCCCC1)C(=O)O; Nle = CCCC[C@H](N)C(=O)O; AEEA = NCCOCCOCC(=O)O; Sar = CNCC(=O)O

Chain of human GRP receptor (P30550 whole entry): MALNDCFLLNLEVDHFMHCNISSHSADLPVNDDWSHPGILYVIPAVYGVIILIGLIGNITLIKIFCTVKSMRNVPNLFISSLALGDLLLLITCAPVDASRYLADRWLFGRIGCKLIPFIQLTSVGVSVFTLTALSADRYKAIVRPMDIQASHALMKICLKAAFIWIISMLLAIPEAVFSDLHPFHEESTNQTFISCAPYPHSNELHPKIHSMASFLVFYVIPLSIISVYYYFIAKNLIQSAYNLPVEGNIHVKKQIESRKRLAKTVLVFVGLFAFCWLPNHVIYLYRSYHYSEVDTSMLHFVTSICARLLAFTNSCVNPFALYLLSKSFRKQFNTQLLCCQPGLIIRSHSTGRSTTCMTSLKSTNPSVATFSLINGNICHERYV

B1: Peptide 130 (peptide)
peptide: {C18 diacid}-[γGlu][AEEA][AEEA]GNHRAV[dA]HL[Nle][Sar]-NH2
SMILES: CCCC[C@H](NC(=O)[C@H](CC(C)C)NC(=O)[C@H](Cc1c[nH]cn1)NC(=O)[C@@H](C)NC(=O)[C@@H](NC(=O)[C@H](C)NC(=O)[C@H](CCCNC(=N)N)NC(=O)[C@H](Cc1c[nH]cn1)NC(=O)[C@H](CC(N)=O)NC(=O)CNC(=O)COCCOCCNC(=O)COCCOCCNC(=O)CC[C@H](NC(=O)CCCCCCCCCCCCCCCCC(=O)O)C(=O)O)C(C)C)C(=O)N(C)CC(N)=O
As to B1, the “hIP1 GRPR EC50” value is above 10000 nM.

B2: Peptide 133 (peptide)
peptide: {C18 diacid}-[γGlu][AEEA][AEEA][AEEA][AEEA]GNH[Trp(6-F)]AV[dA]HL[Nle][Sar]-NH2
SMILES: CCCC[C@H](NC(=O)[C@H](CC(C)C)NC(=O)[C@H](Cc1c[nH]cn1)NC(=O)[C@@H](C)NC(=O)[C@@H](NC(=O)[C@H](C)NC(=O)[C@H](Cc1c[nH]c2cc(F)ccc12)NC(=O)[C@H](Cc1c[nH]cn1)NC(=O)[C@H](CC(N)=O)NC(=O)CNC(=O)COCCOCCNC(=O)COCCOCCNC(=O)COCCOCCNC(=O)COCCOCCNC(=O)CC[C@H](NC(=O)CCCCCCCCCCCCCCCCC(=O)O)C(=O)O)C(C)C)C(=O)N(C)CC(N)=O
With B2, the “hIP1 GRPR EC50” value came out at 600 nM.

B3: Peptide 129 (peptide)
peptide: {C18 diacid}-[γGlu][AEEA][AEEA]GRH[Trp(7-Me)]AV[dA]HL[Nle][Sar]-NH2
SMILES: CCCC[C@H](NC(=O)[C@H](CC(C)C)NC(=O)[C@H](Cc1c[nH]cn1)NC(=O)[C@@H](C)NC(=O)[C@@H](NC(=O)[C@H](C)NC(=O)[C@H](Cc1c[nH]c2c(C)cccc12)NC(=O)[C@H](Cc1c[nH]cn1)NC(=O)[C@H](CCCNC(=N)N)NC(=O)CNC(=O)COCCOCCNC(=O)COCCOCCNC(=O)CC[C@H](NC(=O)CCCCCCCCCCCCCCCCC(=O)O)C(=O)O)C(C)C)C(=O)N(C)CC(N)=O
For B3, the “hIP1 GRPR EC50” value came out at 334 nM.

B4: Peptide 132 (peptide)
peptide: {C20 diacid}-[γGlu][AEEA][AEEA][AEEA][AEEA]GRHWAV[dA]HL[Nle]-NH2
SMILES: CCCC[C@H](NC(=O)[C@H](CC(C)C)NC(=O)[C@H](Cc1c[nH]cn1)NC(=O)[C@@H](C)NC(=O)[C@@H](NC(=O)[C@H](C)NC(=O)[C@H](Cc1c[nH]c2ccccc12)NC(=O)[C@H](Cc1c[nH]cn1)NC(=O)[C@H](CCCNC(=N)N)NC(=O)CNC(=O)COCCOCCNC(=O)COCCOCCNC(=O)COCCOCCNC(=O)COCCOCCNC(=O)CC[C@H](NC(=O)CCCCCCCCCCCCCCCCCCC(=O)O)C(=O)O)C(C)C)C(N)=O
Take B4: the “hIP1 GRPR EC50” value was determined as 4.18 nM.

B5: Peptide 120 (peptide)
peptide: {C18 diacid}-[γGlu][AEEA][AEEA]GAHWAV[dA]HL[Cha]-NH2
SMILES: CC(C)C[C@H](NC(=O)[C@H](Cc1c[nH]cn1)NC(=O)[C@@H](C)NC(=O)[C@@H](NC(=O)[C@H](C)NC(=O)[C@H](Cc1c[nH]c2ccccc12)NC(=O)[C@H](Cc1c[nH]cn1)NC(=O)[C@H](C)NC(=O)CNC(=O)COCCOCCNC(=O)COCCOCCNC(=O)CC[C@H](NC(=O)CCCCCCCCCCCCCCCCC(=O)O)C(=O)O)C(C)C)C(=O)N[C@@H](CC1CCCCC1)C(N)=O
Consider B5, for which the “hIP1 GRPR EC50” value stood at 443 nM.

B6: Peptide 121 (peptide)
peptide: {C18 diacid}-[γGlu][AEEA][AEEA][AEEA][AEEA]GAH[Trp(7-F)]AV[dA]HL[Nle][Sar]-NH2
SMILES: CCCC[C@H](NC(=O)[C@H](CC(C)C)NC(=O)[C@H](Cc1c[nH]cn1)NC(=O)[C@@H](C)NC(=O)[C@@H](NC(=O)[C@H](C)NC(=O)[C@H](Cc1c[nH]c2c(F)cccc12)NC(=O)[C@H](Cc1c[nH]cn1)NC(=O)[C@H](C)NC(=O)CNC(=O)COCCOCCNC(=O)COCCOCCNC(=O)COCCOCCNC(=O)COCCOCCNC(=O)CC[C@H](NC(=O)CCCCCCCCCCCCCCCCC(=O)O)C(=O)O)C(C)C)C(=O)N(C)CC(N)=O
On to B6, for which the “hIP1 GRPR EC50” value amounted to 356 nM.

B7: Peptide 128 (peptide)
peptide: {C18 diacid}-[γGlu][AEEA][AEEA]GAHW[dA]V[dA]HL[Nle][Sar]-NH2
SMILES: CCCC[C@H](NC(=O)[C@H](CC(C)C)NC(=O)[C@H](Cc1c[nH]cn1)NC(=O)[C@@H](C)NC(=O)[C@@H](NC(=O)[C@@H](C)NC(=O)[C@H](Cc1c[nH]c2ccccc12)NC(=O)[C@H](Cc1c[nH]cn1)NC(=O)[C@H](C)NC(=O)CNC(=O)COCCOCCNC(=O)COCCOCCNC(=O)CC[C@H](NC(=O)CCCCCCCCCCCCCCCCC(=O)O)C(=O)O)C(C)C)C(=O)N(C)CC(N)=O
Regarding B7, the “hIP1 GRPR EC50” value was 1060 nM.

B8: Peptide 125 (peptide)
peptide: {C20 diacid}-[γGlu][AEEA][AEEA]GNH[Trp(7-Me)][dA]V[dA]HL[Nle][Sar]-NH2
SMILES: CCCC[C@H](NC(=O)[C@H](CC(C)C)NC(=O)[C@H](Cc1c[nH]cn1)NC(=O)[C@@H](C)NC(=O)[C@@H](NC(=O)[C@@H](C)NC(=O)[C@H](Cc1c[nH]c2c(C)cccc12)NC(=O)[C@H](Cc1c[nH]cn1)NC(=O)[C@H](CC(N)=O)NC(=O)CNC(=O)COCCOCCNC(=O)COCCOCCNC(=O)CC[C@H](NC(=O)CCCCCCCCCCCCCCCCCCC(=O)O)C(=O)O)C(C)C)C(=O)N(C)CC(N)=O
Regarding B8, the “hIP1 GRPR EC50” value was above 10000 nM.

B9: Peptide 124 (peptide)
peptide: {C18 diacid}-[γGlu][AEEA][AEEA]GAH[2Nal]AV[dA]HL[Nle][Sar]-NH2
SMILES: CCCC[C@H](NC(=O)[C@H](CC(C)C)NC(=O)[C@H](Cc1c[nH]cn1)NC(=O)[C@@H](C)NC(=O)[C@@H](NC(=O)[C@H](C)NC(=O)[C@H](Cc1ccc2ccccc2c1)NC(=O)[C@H](Cc1c[nH]cn1)NC(=O)[C@H](C)NC(=O)CNC(=O)COCCOCCNC(=O)COCCOCCNC(=O)CC[C@H](NC(=O)CCCCCCCCCCCCCCCCC(=O)O)C(=O)O)C(C)C)C(=O)N(C)CC(N)=O
In the case of B9, the “hIP1 GRPR EC50” value came to 2380 nM.

With GNHWAVXHLX (Palmitoyl-Gly-Asn-His-Trp-Ala-Val-D-Ala-His-Leu-Nle-NH2) [Peptide 10], the “hIP1 GRPR EC50” value came out at 3.8 nM.

B10: Peptide 126 (peptide)
peptide: {C18 diacid}-[γGlu][AEEA][AEEA]GAH[2Nal]AV[dA]HL[Nle]-NH2
SMILES: CCCC[C@H](NC(=O)[C@H](CC(C)C)NC(=O)[C@H](Cc1c[nH]cn1)NC(=O)[C@@H](C)NC(=O)[C@@H](NC(=O)[C@H](C)NC(=O)[C@H](Cc1ccc2ccccc2c1)NC(=O)[C@H](Cc1c[nH]cn1)NC(=O)[C@H](C)NC(=O)CNC(=O)COCCOCCNC(=O)COCCOCCNC(=O)CC[C@H](NC(=O)CCCCCCCCCCCCCCCCC(=O)O)C(=O)O)C(C)C)C(N)=O
Turning to B10, the “hIP1 GRPR EC50” value was 92.5 nM.

For the molecule GNHWAVGHLM-NH2 [GRP-10 (human GRP18-27)], the “hIP1 GRPR EC50” value came out at 15 nM.

B11: Peptide 119 (peptide)
peptide: {C18 diacid}-[γGlu][AEEA][AEEA]GNHWAV[dA]HL[Cha]-NH2
SMILES: CC(C)C[C@H](NC(=O)[C@H](Cc1c[nH]cn1)NC(=O)[C@@H](C)NC(=O)[C@@H](NC(=O)[C@H](C)NC(=O)[C@H](Cc1c[nH]c2ccccc12)NC(=O)[C@H](Cc1c[nH]cn1)NC(=O)[C@H](CC(N)=O)NC(=O)CNC(=O)COCCOCCNC(=O)COCCOCCNC(=O)CC[C@H](NC(=O)CCCCCCCCCCCCCCCCC(=O)O)C(=O)O)C(C)C)C(=O)N[C@@H](CC1CCCCC1)C(N)=O
As to B11, the “hIP1 GRPR EC50” value came out at 660 nM.

B12: Peptide 9 (peptide)
peptide: {C18 diacid}-[d(γGlu)][AEEA][AEEA]GNHWAV[dA]HL[Nle]-NH2
SMILES: CCCC[C@H](NC(=O)[C@H](CC(C)C)NC(=O)[C@H](Cc1c[nH]cn1)NC(=O)[C@@H](C)NC(=O)[C@@H](NC(=O)[C@H](C)NC(=O)[C@H](Cc1c[nH]c2ccccc12)NC(=O)[C@H](Cc1c[nH]cn1)NC(=O)[C@H](CC(N)=O)NC(=O)CNC(=O)COCCOCCNC(=O)COCCOCCNC(=O)CC[C@@H](NC(=O)CCCCCCCCCCCCCCCCC(=O)O)C(=O)O)C(C)C)C(N)=O
Turning to B12, the “hIP1 GRPR EC50” value stood at 9.4 nM.

B13: Peptide 123 (peptide)
peptide: {C20 diacid}-[γGlu][AEEA][AEEA]GNH[Trp(7-Me)]AV[dA]HL[Nle][Sar]-NH2
SMILES: CCCC[C@H](NC(=O)[C@H](CC(C)C)NC(=O)[C@H](Cc1c[nH]cn1)NC(=O)[C@@H](C)NC(=O)[C@@H](NC(=O)[C@H](C)NC(=O)[C@H](Cc1c[nH]c2c(C)cccc12)NC(=O)[C@H](Cc1c[nH]cn1)NC(=O)[C@H](CC(N)=O)NC(=O)CNC(=O)COCCOCCNC(=O)COCCOCCNC(=O)CC[C@H](NC(=O)CCCCCCCCCCCCCCCCCCC(=O)O)C(=O)O)C(C)C)C(=O)N(C)CC(N)=O
As to B13, the “hIP1 GRPR EC50” value amounted to 60.1 nM.

B14: Peptide 131 (peptide)
peptide: {C20 diacid}-[γGlu][AEEA][AEEA]GNHWAV[dA]HL[Nle][Sar]-NH2
SMILES: CCCC[C@H](NC(=O)[C@H](CC(C)C)NC(=O)[C@H](Cc1c[nH]cn1)NC(=O)[C@@H](C)NC(=O)[C@@H](NC(=O)[C@H](C)NC(=O)[C@H](Cc1c[nH]c2ccccc12)NC(=O)[C@H](Cc1c[nH]cn1)NC(=O)[C@H](CC(N)=O)NC(=O)CNC(=O)COCCOCCNC(=O)COCCOCCNC(=O)CC[C@H](NC(=O)CCCCCCCCCCCCCCCCCCC(=O)O)C(=O)O)C(C)C)C(=O)N(C)CC(N)=O
B14: the “hIP1 GRPR EC50” value was found to be 54.2 nM.

B15: Peptide 122 (peptide)
peptide: {C20 diacid}-[γGlu][AEEA][AEEA][AEEA][AEEA]GRH[Trp(7-Me)]AV[dA]HL[Nle]-NH2
SMILES: CCCC[C@H](NC(=O)[C@H](CC(C)C)NC(=O)[C@H](Cc1c[nH]cn1)NC(=O)[C@@H](C)NC(=O)[C@@H](NC(=O)[C@H](C)NC(=O)[C@H](Cc1c[nH]c2c(C)cccc12)NC(=O)[C@H](Cc1c[nH]cn1)NC(=O)[C@H](CCCNC(=N)N)NC(=O)CNC(=O)COCCOCCNC(=O)COCCOCCNC(=O)COCCOCCNC(=O)COCCOCCNC(=O)CC[C@H](NC(=O)CCCCCCCCCCCCCCCCCCC(=O)O)C(=O)O)C(C)C)C(N)=O
In the case of B15, the “hIP1 GRPR EC50” value turned out to be 3.88 nM.
